The values that follow come from patent publication US20220242936A1 (CHANGCHUN GENESCIENCE PHARMACEUTICAL, published 2022).

Experiment [1] concerns the target T1, Aβ1-42 polypeptide (human).
T1 construct: Synthetic peptide; also called Aβ1-42 monomer; Aβ monomer
Put plainly: ELISA EC50 on Aβ42 monomer, 2 ml transient transfection; table note: '-' means no combination; expression 61 mg/L.

Experiment [2] addresses T1, Aβ1-42 polypeptide. In words: ELISA EC50 on Aβ42 monomer, 2 ml transient transfection; table note: '-' means no combination; expression 68.2 mg/L.
Experiment [3] has as its target T1, Aβ1-42 polypeptide. In words: ELISA EC50 on Aβ42 monomer, 2 ml transient transfection; table note: '-' means no combination; expression 3.12 mg/L. For orientation: An ELISA detects its analyte on a solid surface through an enzyme-linked reagent.
Experiment [4] has as its target T1, Aβ1-42 polypeptide. In words: ELISA EC50 on Aβ42 monomer, 2 ml transient transfection; table note: '-' means no combination; expression 60 mg/L.
In experiment [5] the target is T1, Aβ1-42 polypeptide. Put plainly: ELISA EC50 on Aβ42 monomer, 2 ml transient transfection; table note: '-' means no combination; expression 68.4 mg/L.
Experiment [6] deals with T1, Aβ1-42 polypeptide. Put plainly: ELISA EC50 on Aβ42 monomer, 2 ml transient transfection; table note: '-' means no combination; expression 32.1 mg/L.
In experiment [7] the target is T1, Aβ1-42 polypeptide. In words: cell-based or functional assay.
Experiment [8] concerns the target T2, biotinylated Aβ1-16 polypeptide (also: biotinylated (site not given here)).
T2 construct: also called Aβ1-16 (N-terminal peptide fragment)
T2 peptide: DAEFRHDSGYEVHHQK
In words: ELISA, biotinylated peptide on streptavidin plate. As for the experimental part:
(§1) Detection: After stopping the reaction, the microtiter plate was immediately placed into a microplate reader, the OD value was measured at 450 nm, and the original data was stored.
(§2) Data processing: The raw data were input into the software SoftMax Pro 6.2.1 for data processing.

Experiment [9] concerns the target T3, biotinylated Aβ14-29 polypeptide (biotinylated (site not stated)).
T3 construct: also called Aβ14-29 (middle peptide fragment)
Put plainly: ELISA, biotinylated peptide on streptavidin plate. Here is the method:
as §1, §2

In experiment [10] the target is T4, biotinylated Aβ1-42 polypeptide (human, biotinylated (site not stated)).
T4 construct: also called Full length Aβ1-42
In words: ELISA, hybridoma supernatant on biotinylated peptide captured by streptavidin. As for the experimental part:
as §1, §2

Experiment [11] concerns the target T2, biotinylated Aβ1-16 polypeptide. Described as above. As for the experimental part: as §1, §2
The target in experiment [12] is T3, biotinylated Aβ14-29 polypeptide. Described as above. As for the experimental part: as §1, §2

Where no end group is shown, it is not given here.

T1 sequence (peptide, as listed by the source): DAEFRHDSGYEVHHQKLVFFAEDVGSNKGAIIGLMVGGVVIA
T4 sequence (peptide, as listed by the source): as above

B1: 066-4.26.14H1L2 (antibody, human IgG1, V domains shown)
VH: EVQLVESGGGLVKPGGSLRLSCAASGFTFRSYAMSWVRQAPGKGLEWVASISTTSNTYYPDSVKGRFTTSRDNAKNSLYLQMNSLRAEDTAVYYCGRGVITNQAWFAYWGQGTLVTVSS
VL: DIVLTQSPATLSVSPGERATLSCRASQSISNNLHWYQQKPGQAPRLLIKYASQSISGIPARFSGSGSGTDFTLTISSLQSEDFAVYFCQQSNSWPLTFGGGTKVEIKR
notes: Humanized full-length antibody; human IgG1 heavy constant and human kappa light constant (vectors pGS003-hIgG1CH, pGS003-hIgKCL)
B1: the binding result with Aβ1-42 polypeptide [1] is “no binding”.

B2: 066-4.26.14H1L3 (antibody, human IgG1, V domains shown)
VH: EVQLVESGGGLVKPGGSLRLSCAASGFTFRSYAMSWVRQAPGKGLEWVASISTTSNTYYPDSVKGRFTTSRDNAKNSLYLQMNSLRAEDTAVYYCGRGVITNQAWFAYWGQGTLVTVSS
VL: DIVLTQSPDFQSVTPKEKVTISCRASQSISNNLHWYQQKPDQSPKLLIKYASQSISGIPSRFSGSGSGTDFTLTINSLEAEDAAAYFCQQSNSWPLTFGPGTKVEIKR
notes: as for B1
With B2, in the experiment with Aβ1-42 polypeptide [2], the binding result is “no binding”.

B3: 066-4.26.14H5L4 (antibody, human IgG1, V domains shown)
VH: EVQLVESGGGLVQPGGSLRLSCVASGFTFRSYAMSWVRQAPGKGLEWVASISTTSNTYYPDSVKGRFTTSRDNSKNTVYLQMSSLRAEDTAVYYCGRGVITNQAWFAYWGQGTLVTVSS
VL: EIVLTQSPGTLSLSPGERATLSCRASQSISNNLHWYQQKPGQAPRLLIKYASQSISGIPDRFSGSGSGTDFTLTISRLEPEDFAVYYCQQSNSWPLTFGGGTKVEIKR
notes: as for B1
On to B3, for which the binding result in the experiment with Aβ1-42 polypeptide [3] is recorded as “no binding”.

B4: 066-4.26.14H1L1 (antibody, human IgG1, V domains shown)
VH: EVQLVESGGGLVKPGGSLRLSCAASGFTFRSYAMSWVRQAPGKGLEWVASISTTSNTYYPDSVKGRFTTSRDNAKNSLYLQMNSLRAEDTAVYYCGRGVITNQAWFAYWGQGTLVTVSS
VL: DIVLTQSPATLSVSPGERVTLSCRASQSISNNLHWYQQKSGQAPRLLIKYASQSISGIPSRFSGSGSGTDFTLTISSLQSEDFAVYFCQQSNSWPLTFGGGTQVEIKR
notes: as for B1
With B4, the binding result with Aβ1-42 polypeptide [4] is on record as “no binding”.

B5: 066-4.26.14H1L5 (antibody, human IgG1, V domains shown)
VH: EVQLVESGGGLVKPGGSLRLSCAASGFTFRSYAMSWVRQAPGKGLEWVASISTTSNTYYPDSVKGRFTTSRDNAKNSLYLQMNSLRAEDTAVYYCGRGVITNQAWFAYWGQGTLVTVSS
VL: EIVLTQSPDFQSVTPKEKVTITCRASQSISNNLHWYQQKPDQSPKLLIKYASQSISGVPSRFSGSGSGTDFTLTINSLEAEDAATYYCQQSNSWPLTFGQGTKVEIKR
notes: as for B1
Turning to B5, the binding result with Aβ1-42 polypeptide [5] is listed as “no binding”.

B6: 066-4.26.14H1L4 (antibody, human IgG1, V domains shown)
VH: EVQLVESGGGLVKPGGSLRLSCAASGFTFRSYAMSWVRQAPGKGLEWVASISTTSNTYYPDSVKGRFTTSRDNAKNSLYLQMNSLRAEDTAVYYCGRGVITNQAWFAYWGQGTLVTVSS
VL: EIVLTQSPGTLSLSPGERATLSCRASQSISNNLHWYQQKPGQAPRLLIKYASQSISGIPDRFSGSGSGTDFTLTISRLEPEDFAVYYCQQSNSWPLTFGGGTKVEIKR
notes: as for B1
Take B6: the binding result with Aβ1-42 polypeptide [6] is listed as “no binding”.

B7: 066-4.26.14 (antibody, V domains shown)
VH: EVKLVESGGGLVKPGGSLKLSCAASGFTFRSYAMSWVRQTPEKRLEWVASISTTSNTYYPDSVKGRFTTSRDNARNIVYLQMSSLRSDDTAMYYCGRGVITNQAWFAYWGQGTLVTVSA
VL: DIVLTQSPATLSVTPGDSVSLSCRASQSISNNLHWYQQKSHESPRLLIKYASQSISGIPSRFSGSGSGTDFTLSVNNVGTEDFGMYFCQQSNSWPLTFGAGTKLELK
notes: Murine hybridoma antibody
For B7, the “relative fluorescence intensity (ThT, Aβ polymerization; PBS group = 1.0)” value with Aβ1-42 polypeptide [7] is 0.46 relative to PBS group. Further, the “relative fluorescence intensity (ThT, Aβ polymerization; hIgG = 1.00)” value with Aβ1-42 polypeptide [7] is 0.7 relative to hIgG. Besides, the “relative value of LDH release (SHSY5Y cells with Aβ; Vehicle group = 1.0)” value with Aβ1-42 polypeptide [7] is 1.2 relative to Vehicle group. In the experiment with Aβ1-42 polypeptide [7], the “relative value of LDH release (SHSY5Y cells with Aβ; hIgG = 1.00)” value was 1.2 relative to hIgG. For the same molecule, the binding result in experiment [8] and in experiment [9] was “no binding” throughout. In addition, the “OD value at 450 nm” value in experiment [10] was determined as 1.93 OD; in experiment [11], 0.0602 OD; in experiment [12] it was 0.0674 OD.
